Reference: patent publication US20240124563A1 (NANJING ZAIMING PHARMACEUTICAL, published 2024)

Key:
[1] = biological target: T1, human MSLN-FL-his protein (human, UniProt Q13421 296-580); assay: competitive ELISA on MSLN-FL-His; other antibody: NB148-46 (3.m5)
T1 construct: Made in HEK293E cells, purified on nickel column; also called hMSLN-FL-his; not shown: histidine tag

[2] = biological target: T1, human MSLN-FL-his protein; assay: competitive ELISA on MSLN-FL-His; other antibody: NB148-88 (3.m6)
[3] = biological target: T2, human MSLN-R2-his protein (human, UniProt Q13421 391-486); assay: ELISA, antibody 0.0001 nM
T2 construct: MSLN-R2 = Ser391-Asn486; also called hMSLN-R2-his; not shown: histidine tag

[4] = biological target: T1, human MSLN-FL-his protein; assay: competitive ELISA on MSLN-FL-His; other antibody: NB148-13 (3.m1)
[5] = biological target: T2, human MSLN-R2-his protein; assay: ELISA, antibody 0 nM (blank)
[6] = biological target: T3, human MSLN-R3-his protein (human, UniProt Q13421 487-598); assay: ELISA, antibody 0.1 nM
T3 construct: MSLN-R3 = Met487-Ser598; also called hMSLN-R3-his; not shown: histidine tag

[7] = biological target: T2, human MSLN-R2-his protein; assay: ELISA, antibody 0.01 nM
[8] = biological target: T3, human MSLN-R3-his protein; assay: ELISA, antibody 0.0001 nM
[9] = biological target: T3, human MSLN-R3-his protein; assay: ELISA, antibody 0 nM (blank)
[10] = biological target: T2, human MSLN-R2-his protein; assay: ELISA, antibody 1 nM
[11] = biological target: T1, human MSLN-FL-his protein; assay: competitive ELISA on MSLN-FL-His; other antibody: NB148-35 (3.m4)
[12] = biological target: T2, human MSLN-R2-his protein; assay: ELISA, antibody 0.1 nM
[13] = biological target: T3, human MSLN-R3-his protein; assay: ELISA, antibody 1 nM
[14] = biological target: T3, human MSLN-R3-his protein; assay: ELISA, antibody 0.001 nM
[15] = biological target: T4, human MSLN-R1-his protein (human, UniProt Q13421 296-390); assay: ELISA, antibody 0.1 nM
T4 construct: MSLN-R1 = Glu296-Thr390; also called hMSLN-R1-his; not shown: histidine tag
T4 chain: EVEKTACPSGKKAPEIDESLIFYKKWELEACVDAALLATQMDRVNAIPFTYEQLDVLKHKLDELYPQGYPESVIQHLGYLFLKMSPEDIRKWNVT

[16] = biological target: T4, human MSLN-R1-his protein; assay: ELISA, antibody 0.01 nM
[17] = biological target: T3, human MSLN-R3-his protein; assay: ELISA, antibody 10 nM
[18] = biological target: T1, human MSLN-FL-his protein; assay: competitive ELISA on MSLN-FL-His; other antibody: NB148-27 (3.m3)
[19] = biological target: T1, human MSLN-FL-his protein; assay: competitive ELISA on MSLN-FL-His; other antibody: Tab107 (C) (1.m4)
[20] = biological target: T1, human MSLN-FL-his protein; assay: competitive ELISA on MSLN-FL-His; other antibody: Tab142 (R1) (3.m16)
[21] = biological target: T4, human MSLN-R1-his protein; assay: ELISA, antibody 1 nM
[22] = biological target: T4, human MSLN-R1-his protein; assay: ELISA, antibody 10 nM
[23] = biological target: T4, human MSLN-R1-his protein; assay: ELISA, antibody 1 nM
[24] = biological target: T5, human MSLN-FL-his protein (human, UniProt Q13421 296-580); assay: ELISA, antibody 1 nM
T5 construct: also called hMSLN-FL-his; human MSLN full-length protein; not shown: histidine tag

[25] = biological target: T3, human MSLN-R3-his protein; assay: ELISA, antibody 1 nM; remark: listed apart in the source
[26] = biological target: T2, human MSLN-R2-his protein; assay: ELISA, antibody 1 nM; remark: listed apart in the source
[27] = biological target: T6, human MSLN-R3-3 polypeptide (purchased from GL Biochem, Cat. No. 406676) (human); assay: ELISA, antibody 1 nM
T6 construct: Printed as Val539-Val588; also called hMSLN-R3-3
T6 peptide: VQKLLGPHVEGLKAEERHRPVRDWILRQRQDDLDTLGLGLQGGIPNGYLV

[28] = biological target: T1, human MSLN-FL-his protein; assay: competitive ELISA on MSLN-FL-His; other antibody: NB149-95 (3.m11)

T2 sequence (Q13421 other isoform, or with tags, fused parts or gaps): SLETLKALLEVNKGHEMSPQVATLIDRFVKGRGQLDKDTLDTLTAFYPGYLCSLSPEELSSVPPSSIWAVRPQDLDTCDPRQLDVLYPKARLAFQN
T3 sequence (Q13421 495-606): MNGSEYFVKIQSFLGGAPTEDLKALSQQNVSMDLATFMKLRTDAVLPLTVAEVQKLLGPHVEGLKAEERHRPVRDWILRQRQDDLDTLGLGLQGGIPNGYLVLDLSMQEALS

- inhibition rate [1]: 7%
- inhibition rate [2]: 4%
- OD450 nm [3]: 0.04
- inhibition rate [4]: 38%
- OD450 nm [5]: 0.05
- OD450 nm [6]: 0.05
- OD450 nm [7]: 0.04
- OD450 nm [8]: 0.05
- OD450 nm [9]: 0.05
- OD450 nm [10]: 0.05
- inhibition rate [11]: 26%
- OD450 nm [12]: 0.04
- OD450 nm [13]: 0.05
- OD450 nm [14]: 0.05
- OD450 nm [15]: 0.05
- OD450 nm [16]: 0.06
- OD450 nm [17]: 0.05
- inhibition rate [18]: 1%
- inhibition rate [19]: 65%
- inhibition rate [20]: -9%
- OD450 nm [21]: 0.05
- OD450 nm [22]: 0.06
- OD450 nm [23]: 0.05
- OD450 nm [24]: 1.74
- OD450 nm [25]: 0.05
- OD450 nm [26]: 0.05
- OD450 nm [27]: 0.07
- inhibition rate [28]: -5%
B1: Tab107 (YP3, hIgG1) (antibody, V domains shown)
VH: QEQLVESGGGLVQPGASLTLTCTASGIDFSRYYMCWVRQAPGKGLEGIACIYIGGSGSTYYASWAKGRFTISKASSTTVTLQMTSLTAADTATYFCARGTNLNYIFRLWGPGTLVTVSS
VL: DVVMTQTPSPVSAAVGGTVTIKCQASQSINNGLAWYQQKPGQPPRLLIYSASNLESGVPSRFKGSGSGTEFTLTISDLECDDAATYYCQCIWDGNSYVNAFGGGTEVVVRT
notes: also called YP3 human IgG1 antibody
